{"source": "patent US20190177414A1", "about": "(AKESO BIOPHARMA, published 2019)", "binders": {"B1": {"name": "anti-CTLA4 antibody 4G10 (antibody, V domains shown)", "VH": "QVKLQESGPELVKPGASMKISCKASGYSFTGYTMNWVKQSHGKNLEWIGLINPYNNITNYNQKFMGKATFTVDKSSSTAYMELLRLTSEDSGVYFCARLDYRSYWGQGTLVTVSA", "VL": "QAVVTQESALTTSPGETVTLTCRSSTGAVTTSNFANWVQEKPDHLFTSLIGGTNNRAPGVPARFSGSLIGDKAALTITGAQTEDEAIYFCALWYSNHWVFGGGTKLTVLG", "notes": "Mouse monoclonal antibody purified from hybridoma supernatant; also called monoclonal antibody secreted by hybridoma cell line LT002 (CTLA4-4G10)"}}, "molecular_target": "T1, CTLA4 antigen (CTLA4 protein obtained by cleaving the CTLA4-mFc fusion protein with TEV protease) (human, UniProt P16410 36-161)", "T1 construct": "extracellular domain; after cleavage part of the TEV site may remain at the C-terminus; also called CTLA4ECD", "T1 sequence (looked up)": "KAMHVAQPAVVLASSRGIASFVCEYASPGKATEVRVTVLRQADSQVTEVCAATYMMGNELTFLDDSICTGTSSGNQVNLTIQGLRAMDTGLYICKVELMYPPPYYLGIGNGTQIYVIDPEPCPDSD", "experiment": "Octet (ForteBio) BLI; antibody amine-coupled to AR2G sensor, CTLA4 antigen in solution", "procedure": "The dynamic parameters of the antigen—antibody binding were determined using the ForteBio molecular interaction analyzer (Octet). The CTLA4-mFc fusion protein prepared in Example 1 was cleaved using the TEV protease, and the CTLA4 antigen was obtained by purification on a column. […] After equilibration in PBST, the CTLA4 antigen was added for binding. […] Dissociation occurred in PBST."}
{"binder": "B1", "values": [{"measurement": "Kd", "result": 0.301, "unit": "nM"}, {"measurement": "koff", "result": 0.000114, "unit": "s⁻¹"}, {"measurement": "kon", "result": 378000, "unit": "M⁻¹ s⁻¹"}]}
